The text below walks through data of the supplement of paper PMC9112550, “Optimization of the antimicrobial peptide Bac7 by deep mutational scanning” (BMC Biology, 2022).

In this data set the test system is Escherichia coli TOP10. Kind of data set: shrunken log2 fold change of peptide-encoding DNA abundance (4.5 h post-induction vs induction); higher = less antimicrobial activity (less host growth inhibition). To be noted: time post-induction: 4.5 h; library: site-saturation at positions 5, 18, 19, 20.
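Further: peptides expressed intracellularly from a pBAD plasmid library in pooled LB shake-flask culture, induced with 0.3% L-arabinose, DNA abundance read by NGS, three biological replicates, DESeq2 with apeglm shrinkage.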

As to RRIRTRPPRLPRPRPRPFINPRP, the “shrunken log2 fold change” value was -0.161.
The same measure for RRIRLRPPRLPRPRPRPPQQPRP: 0.313; for RRIRARPPRLPRPRPRPVLAPRP: 1.18; for RRIRCRPPRLPRPRPRPVHGPRP: 0.267.
The same measure for RRIRYRPPRLPRPRPRPKEMPRP: -0.259; for RRIRWRPPRLPRPRPRPQSEPRP: -0.338; for RRIRHRPPRLPRPRPRPQIWPRP: -0.327.
The result for RRIRSRPPRLPRPRPRPHMPPRP reads -0.401.
Take RRIRGRPPRLPRPRPRPTESPRP: the “shrunken log2 fold change” value was 0.803.
On to RRIRYRPPRLPRPRPRPNYYPRP, for which the “shrunken log2 fold change” value is -1.16.
The same measure for RRIRCRPPRLPRPRPRPTEDPRP: -0.0639; for RRIRTRPPRLPRPRPRPWEHPRP: -0.069; for RRIRRRPPRLPRPRPRPTAAPRP: 1.21.
The result for RRIRIRPPRLPRPRPRPKHTPRP reads -0.329; that for RRIRKRPPRLPRPRPRPANFPRP, -0.0479; that for RRIRSRPPRLPRPRPRPKHKPRP, -0.0831.
The result for RRIRLRPPRLPRPRPRPIPFPRP reads -0.0242; that for RRIRARPPRLPRPRPRPQTCPRP, 0.246; that for RRIRQRPPRLPRPRPRPVVSPRP, -0.179.
As for RRIRDRPPRLPRPRPRPLPHPRP, the “shrunken log2 fold change” value is -0.146.
The result for RRIRFRPPRLPRPRPRPTLLPRP reads -0.0998; that for RRIRNRPPRLPRPRPRPAFLPRP, -0.0726; that for RRIRLRPPRLPRPRPRPADSPRP, -0.182.
The result for RRIRIRPPRLPRPRPRPTNSPRP reads -0.827; that for RRIRGRPPRLPRPRPRPDITPRP, 1.01.
The result for RRIRPRPPRLPRPRPRPHMRPRP reads 0.0614.
With RRIRYRPPRLPRPRPRPITTPRP, the “shrunken log2 fold change” value was 0.0271.
The result for RRIRARPPRLPRPRPRPLKHPRP reads -0.0681; that for RRIRDRPPRLPRPRPRPHSMPRP, -0.293; that for RRIRGRPPRLPRPRPRPCTNPRP, 0.247.
For RRIRIRPPRLPRPRPRPQEEPRP, the “shrunken log2 fold change” value is 0.0133.
For the sequence RRIRHRPPRLPRPRPRPVHTPRP, the “shrunken log2 fold change” value is -0.292.
In the case of RRIRQRPPRLPRPRPRPYQCPRP, the “shrunken log2 fold change” value is -0.263.
The result for RRIRIRPPRLPRPRPRPEIIPRP reads -0.00386; that for RRIRGRPPRLPRPRPRPCLRPRP, 0.459.
As for RRIRKRPPRLPRPRPRPNGRPRP, the “shrunken log2 fold change” value came to 0.131.
The same measure for RRIRQRPPRLPRPRPRPVADPRP: 0.0976; for RRIRIRPPRLPRPRPRPHIWPRP: -0.582.
The result for RRIRIRPPRLPRPRPRPKTYPRP reads -0.879.
The same measure for RRIRSRPPRLPRPRPRPNTRPRP: -0.186; for RRIRKRPPRLPRPRPRPNYKPRP: -0.507.
Regarding RRIRLRPPRLPRPRPRPTIMPRP, the “shrunken log2 fold change” value is -0.334.
In the case of RRIRNRPPRLPRPRPRPQCKPRP, the “shrunken log2 fold change” value was -0.0743.
The same measure for RRIRNRPPRLPRPRPRPKVSPRP: 0.264.
The result for RRIRVRPPRLPRPRPRPCDTPRP reads 0.0884.
The result for RRIRPRPPRLPRPRPRPCKLPRP reads -0.609; that for RRIRIRPPRLPRPRPRPWYNPRP, -0.343; that for RRIRLRPPRLPRPRPRPIRFPRP, -0.185.
For the sequence RRIRFRPPRLPRPRPRPSWSPRP, the “shrunken log2 fold change” value is -0.557.
The result for RRIRLRPPRLPRPRPRPSCDPRP reads -0.417; that for RRIRERPPRLPRPRPRPFLSPRP, -0.11; that for RRIRKRPPRLPRPRPRPRGTPRP, 0.648.
The result for RRIRDRPPRLPRPRPRPSYKPRP reads -0.208.
The same measure for RRIRWRPPRLPRPRPRPQMPPRP: 0.135; for RRIRPRPPRLPRPRPRPDRGPRP: 0.0265; for RRIRSRPPRLPRPRPRPAQPPRP: 0.181.
As to RRIRCRPPRLPRPRPRPDIAPRP, the “shrunken log2 fold change” value came to 0.38.
The result for RRIRGRPPRLPRPRPRPVITPRP reads -0.09; that for RRIRNRPPRLPRPRPRPIHEPRP, -0.00804; that for RRIRQRPPRLPRPRPRPMMHPRP, -0.252.
The same measure for RRIRERPPRLPRPRPRPIVDPRP: -0.204; for RRIRMRPPRLPRPRPRPDWQPRP: 0.198.
For RRIRMRPPRLPRPRPRPSHWPRP, the “shrunken log2 fold change” value was determined as 0.0911.
The same measure for RRIRGRPPRLPRPRPRPDKCPRP: 0.627; for RRIRPRPPRLPRPRPRPGKKPRP: 0.00372; for RRIRTRPPRLPRPRPRPNRIPRP: -0.294.
The result for RRIRMRPPRLPRPRPRPRISPRP reads 0.395.
As for RRIRGRPPRLPRPRPRPCKFPRP, the “shrunken log2 fold change” value came out at 0.125.
Consider RRIRHRPPRLPRPRPRPNCKPRP, for which the “shrunken log2 fold change” value was -0.211.
For the sequence RRIRIRPPRLPRPRPRPFGAPRP, the “shrunken log2 fold change” value is -0.143.
The same measure for RRIRPRPPRLPRPRPRPSLNPRP: -0.539; for RRIRPRPPRLPRPRPRPHRAPRP: 0.402; for RRIRVRPPRLPRPRPRPFMYPRP: -0.642.
The result for RRIRIRPPRLPRPRPRPDQHPRP reads -0.202.
The result for RRIRTRPPRLPRPRPRPKKWPRP reads -0.0616; that for RRIRNRPPRLPRPRPRPATWPRP, -0.000853.
Turning to RRIRERPPRLPRPRPRPFNFPRP, the “shrunken log2 fold change” value was -0.298.
The same measure for RRIRVRPPRLPRPRPRPPQWPRP: 0.353.
The same measure for RRIRTRPPRLPRPRPRPSPYPRP: -0.573; for RRIRARPPRLPRPRPRPISLPRP: -0.0678.
With RRIRGRPPRLPRPRPRPMNWPRP, the “shrunken log2 fold change” value worked out at 0.179.
The same measure for RRIRDRPPRLPRPRPRPGDKPRP: 0.088; for RRIRWRPPRLPRPRPRPHHQPRP: -0.316; for RRIRWRPPRLPRPRPRPMTLPRP: -0.0611.
The result for RRIRVRPPRLPRPRPRPHYRPRP reads -0.0502.
The result for RRIRMRPPRLPRPRPRPAVWPRP reads 1.08.
For the sequence RRIRDRPPRLPRPRPRPESFPRP, the “shrunken log2 fold change” value is -0.0579.
As for RRIRIRPPRLPRPRPRPEVNPRP, the “shrunken log2 fold change” value is -0.294.
The result for RRIRSRPPRLPRPRPRPRGNPRP reads 0.0829; that for RRIRERPPRLPRPRPRPTTMPRP, -0.364; that for RRIRTRPPRLPRPRPRPWFWPRP, 0.0569.
The result for RRIRVRPPRLPRPRPRPLKPPRP reads -0.0393; that for RRIRVRPPRLPRPRPRPMIDPRP, -0.283.
Regarding RRIRGRPPRLPRPRPRPKHMPRP, the “shrunken log2 fold change” value is 0.0797.
The same measure for RRIRFRPPRLPRPRPRPNVPPRP: -0.0369; for RRIRPRPPRLPRPRPRPILWPRP: 0.0824.
The same measure for RRIRARPPRLPRPRPRPHTYPRP: -0.126; for RRIRIRPPRLPRPRPRPVATPRP: -0.374.
For the sequence RRIRLRPPRLPRPRPRPYYEPRP, the “shrunken log2 fold change” value was -0.493.
Regarding RRIRYRPPRLPRPRPRPCVYPRP, the “shrunken log2 fold change” value is -0.197.
Take RRIRYRPPRLPRPRPRPEKCPRP: the “shrunken log2 fold change” value is -0.26.
The result for RRIRARPPRLPRPRPRPRGEPRP reads 0.613; that for RRIRFRPPRLPRPRPRPGGLPRP, 0.217.
The result for RRIRPRPPRLPRPRPRPHYCPRP reads -0.997; that for RRIRDRPPRLPRPRPRPSNTPRP, -0.75; that for RRIRVRPPRLPRPRPRPETAPRP, 0.406.
The same measure for RRIRLRPPRLPRPRPRPIAPPRP: 0.372; for RRIRRRPPRLPRPRPRPVWHPRP: 0.278; for RRIRIRPPRLPRPRPRPRLHPRP: -0.341.
In the case of RRIRHRPPRLPRPRPRPHEPPRP, the “shrunken log2 fold change” value was -0.0274.
The result for RRIRSRPPRLPRPRPRPMHAPRP reads 0.562; that for RRIRMRPPRLPRPRPRPFYNPRP, -0.141.
The result for RRIRRRPPRLPRPRPRPTADPRP reads 0.808.
For RRIRVRPPRLPRPRPRPRHIPRP, the “shrunken log2 fold change” value is -0.508.
The result for RRIRKRPPRLPRPRPRPCSLPRP reads -0.529.
Regarding RRIRWRPPRLPRPRPRPARAPRP, the “shrunken log2 fold change” value was 0.563.
The result for RRIRTRPPRLPRPRPRPIHCPRP reads -0.172; that for RRIRYRPPRLPRPRPRPPQLPRP, -0.371.
The same measure for RRIRMRPPRLPRPRPRPSCSPRP: -0.0918; for RRIRLRPPRLPRPRPRPECMPRP: 0.442.
The result for RRIRPRPPRLPRPRPRPLGGPRP reads 1.53; that for RRIRIRPPRLPRPRPRPGCVPRP, -0.00757.
As to RRIRMRPPRLPRPRPRPLLDPRP, the “shrunken log2 fold change” value stood at 0.409.
The result for RRIRSRPPRLPRPRPRPGQTPRP reads -0.0742; that for RRIRMRPPRLPRPRPRPEHWPRP, -0.00593.
